According to paper doi:10.1101/815886:

Tests used:
[1] = target: CST wild type (CTC1-STN1-TEN1) (human, UniProt Q2NKJ3;Q9H668;Q86WV5 1-1217;1-368;1-123); assay: cryo-EM
[2] = target: CST with CTC1 K743E/R744E (human, UniProt Q2NKJ3;Q9H668;Q86WV5 1-1217;1-368;1-123, K743E;R744E;CTC1:); assay: EMSA
[3] = target: CST with CTC1 K1164E/K1167E (human, UniProt Q2NKJ3;Q9H668;Q86WV5 1-1217;1-368;1-123, K1164E;K1167E;CTC1:); assay: EMSA
[4] = target: CST with CTC1 V967A/S979A/H980A (human, UniProt Q2NKJ3;Q9H668;Q86WV5 1-1217;1-368;1-123, V967A;S979A;H980A;CTC1:); assay: EMSA
[5] = target: CST with CTC1 R1193E/R1195E (human, UniProt Q2NKJ3;Q9H668;Q86WV5 1-1217;1-368;1-123, R1193E;R1195E;CTC1:); assay: EMSA
Chain of CST with CTC1 R1193E/R1195E (Q2NKJ3 whole entry R1193E/R1195E, chain 1 of 3): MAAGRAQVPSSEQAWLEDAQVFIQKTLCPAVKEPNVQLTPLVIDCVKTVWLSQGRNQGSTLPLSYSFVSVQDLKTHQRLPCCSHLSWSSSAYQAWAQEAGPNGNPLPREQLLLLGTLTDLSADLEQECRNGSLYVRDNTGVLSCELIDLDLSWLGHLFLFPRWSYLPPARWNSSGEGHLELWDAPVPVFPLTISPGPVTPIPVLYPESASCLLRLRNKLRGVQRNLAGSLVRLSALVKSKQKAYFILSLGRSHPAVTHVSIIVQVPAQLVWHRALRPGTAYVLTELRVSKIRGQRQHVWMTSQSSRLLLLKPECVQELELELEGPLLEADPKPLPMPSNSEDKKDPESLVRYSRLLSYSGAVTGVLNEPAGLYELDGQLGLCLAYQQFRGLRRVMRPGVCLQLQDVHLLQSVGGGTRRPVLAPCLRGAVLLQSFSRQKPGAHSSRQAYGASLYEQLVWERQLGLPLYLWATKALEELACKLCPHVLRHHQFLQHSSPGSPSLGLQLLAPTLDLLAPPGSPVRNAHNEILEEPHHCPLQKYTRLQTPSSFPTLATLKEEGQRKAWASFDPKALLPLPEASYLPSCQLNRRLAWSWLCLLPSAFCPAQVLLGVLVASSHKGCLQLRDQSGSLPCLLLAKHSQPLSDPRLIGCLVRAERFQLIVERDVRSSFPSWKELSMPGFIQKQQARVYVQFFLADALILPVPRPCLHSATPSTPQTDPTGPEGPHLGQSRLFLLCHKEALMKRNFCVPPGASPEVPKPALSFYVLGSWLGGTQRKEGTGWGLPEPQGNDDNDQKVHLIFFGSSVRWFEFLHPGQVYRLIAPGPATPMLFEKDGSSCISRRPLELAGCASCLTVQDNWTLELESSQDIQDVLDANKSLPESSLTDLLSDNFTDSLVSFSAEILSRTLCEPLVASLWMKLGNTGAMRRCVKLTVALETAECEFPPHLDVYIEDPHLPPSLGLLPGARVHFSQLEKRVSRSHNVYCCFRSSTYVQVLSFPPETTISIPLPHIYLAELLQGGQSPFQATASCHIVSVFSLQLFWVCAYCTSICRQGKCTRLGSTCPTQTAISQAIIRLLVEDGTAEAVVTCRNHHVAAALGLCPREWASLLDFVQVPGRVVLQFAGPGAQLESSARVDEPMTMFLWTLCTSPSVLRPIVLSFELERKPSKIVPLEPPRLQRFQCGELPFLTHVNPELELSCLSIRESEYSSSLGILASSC
Chain of CST with CTC1 R1193E/R1195E (Q9H668 whole entry, stated change not applied, chain 2 of 3): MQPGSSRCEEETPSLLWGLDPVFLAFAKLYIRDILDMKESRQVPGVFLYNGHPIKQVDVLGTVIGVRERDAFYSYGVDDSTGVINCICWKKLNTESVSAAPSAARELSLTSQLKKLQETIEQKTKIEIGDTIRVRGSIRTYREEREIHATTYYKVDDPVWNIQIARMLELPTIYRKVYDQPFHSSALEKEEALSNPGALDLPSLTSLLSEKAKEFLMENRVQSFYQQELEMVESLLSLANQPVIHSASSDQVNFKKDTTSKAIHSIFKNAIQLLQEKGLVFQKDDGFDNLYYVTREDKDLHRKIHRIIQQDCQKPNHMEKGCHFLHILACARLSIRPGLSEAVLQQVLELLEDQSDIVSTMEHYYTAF
Chain of CST with CTC1 R1193E/R1195E (Q86WV5 whole entry, stated change not applied, chain 3 of 3): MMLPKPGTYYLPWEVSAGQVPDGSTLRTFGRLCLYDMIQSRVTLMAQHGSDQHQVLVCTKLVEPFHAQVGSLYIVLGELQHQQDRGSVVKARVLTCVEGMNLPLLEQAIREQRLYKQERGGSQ

Chain of CST with CTC1 K1164E/K1167E (Q2NKJ3 whole entry K1164E/K1167E, chain 1 of 3): as the sequence (Q2NKJ3 whole entry R1193E/R1195E, chain 1 of 3) above, with K1164E, K1167E, E1193R, E1195R counted along it
Chain of CST with CTC1 K1164E/K1167E (Q9H668 whole entry, stated change not applied, chain 2 of 3): as the sequence (Q9H668 whole entry, stated change not applied, chain 2 of 3) above
Chain of CST with CTC1 K1164E/K1167E (Q86WV5 whole entry, stated change not applied, chain 3 of 3): as the sequence (Q86WV5 whole entry, stated change not applied, chain 3 of 3) above
Chain of CST with CTC1 K743E/R744E (Q2NKJ3 whole entry K743E/R744E, chain 1 of 3): as the sequence (Q2NKJ3 whole entry R1193E/R1195E, chain 1 of 3) above, with K743E, R744E, E1193R, E1195R counted along it
Chain of CST with CTC1 K743E/R744E (Q9H668 whole entry, stated change not applied, chain 2 of 3): as the sequence (Q9H668 whole entry, stated change not applied, chain 2 of 3) above
Chain of CST with CTC1 K743E/R744E (Q86WV5 whole entry, stated change not applied, chain 3 of 3): as the sequence (Q86WV5 whole entry, stated change not applied, chain 3 of 3) above
Chain of CST with CTC1 V967A/S979A/H980A (Q2NKJ3 whole entry V967A/S979A/H980A, chain 1 of 3): as the sequence (Q2NKJ3 whole entry R1193E/R1195E, chain 1 of 3) above, with V967A, S979A, H980A, E1193R, E1195R counted along it
Chain of CST with CTC1 V967A/S979A/H980A (Q9H668 whole entry, stated change not applied, chain 2 of 3): as the sequence (Q9H668 whole entry, stated change not applied, chain 2 of 3) above
Chain of CST with CTC1 V967A/S979A/H980A (Q86WV5 whole entry, stated change not applied, chain 3 of 3): as the sequence (Q86WV5 whole entry, stated change not applied, chain 3 of 3) above
Chain of CST wild type (CTC1-STN1-TEN1) (Q2NKJ3 whole entry, chain 1 of 3): as the sequence (Q2NKJ3 whole entry R1193E/R1195E, chain 1 of 3) above, with E1193R, E1195R counted along it
Chain of CST wild type (CTC1-STN1-TEN1) (Q9H668 whole entry, chain 2 of 3): as the sequence (Q9H668 whole entry, stated change not applied, chain 2 of 3) above
Chain of CST wild type (CTC1-STN1-TEN1) (Q86WV5 whole entry, chain 3 of 3): as the sequence (Q86WV5 whole entry, stated change not applied, chain 3 of 3) above

TTAGGGTTAGGGTTAGGG (ssDNA) [3xTEL]
binding result [1]: binds
binding result [2]: binds
binding result [3]: no binding
binding result [4]: no binding
binding result [5]: no binding
